Measurements from US20150056301A1 (CANBAS, published 2015).
Where no end group is shown, it is not given here. [ ]: non-standard residue; d: D form. dPhe(4-NO2) = N[C@H](Cc1ccc([N+](=O)[O-])cc1)C(=O)O; dPhe(F5) = N[C@H](Cc1c(F)c(F)c(F)c(F)c1F)C(=O)O; dBpa = N[C@H](Cc1ccc(C(=O)c2ccccc2)cc1)C(=O)O; dCha = N[C@H](CC1CCCCC1)C(=O)O

T1: baculovirus derived recombinant human full length Chk1 with histidine tag (human, UniProt O14757 1-476)
T1 sequence: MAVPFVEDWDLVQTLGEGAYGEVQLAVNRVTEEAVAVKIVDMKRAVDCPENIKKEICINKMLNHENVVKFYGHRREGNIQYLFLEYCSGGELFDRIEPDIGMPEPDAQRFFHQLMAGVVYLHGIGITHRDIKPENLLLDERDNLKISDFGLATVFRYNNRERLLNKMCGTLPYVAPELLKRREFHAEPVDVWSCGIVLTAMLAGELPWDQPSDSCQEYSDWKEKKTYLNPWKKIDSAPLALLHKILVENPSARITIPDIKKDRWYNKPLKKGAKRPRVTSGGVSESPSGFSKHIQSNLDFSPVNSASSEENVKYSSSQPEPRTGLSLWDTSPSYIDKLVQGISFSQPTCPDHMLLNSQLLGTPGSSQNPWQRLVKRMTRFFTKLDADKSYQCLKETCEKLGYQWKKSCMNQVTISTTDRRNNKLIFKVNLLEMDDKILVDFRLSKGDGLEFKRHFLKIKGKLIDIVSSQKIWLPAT


Columns and labels:
Test in all cases: cell-based or functional assay
[1] = biological target: T1, baculovirus derived recombinant human …
[2] = biological target: E. Coli derived recombinant human full length Chk2 fused with GST (human, UniProt O96017 1-543)
Chain of E. Coli derived recombinant human full length Chk2 fused with GST (O96017 whole entry, the tested form may be a part): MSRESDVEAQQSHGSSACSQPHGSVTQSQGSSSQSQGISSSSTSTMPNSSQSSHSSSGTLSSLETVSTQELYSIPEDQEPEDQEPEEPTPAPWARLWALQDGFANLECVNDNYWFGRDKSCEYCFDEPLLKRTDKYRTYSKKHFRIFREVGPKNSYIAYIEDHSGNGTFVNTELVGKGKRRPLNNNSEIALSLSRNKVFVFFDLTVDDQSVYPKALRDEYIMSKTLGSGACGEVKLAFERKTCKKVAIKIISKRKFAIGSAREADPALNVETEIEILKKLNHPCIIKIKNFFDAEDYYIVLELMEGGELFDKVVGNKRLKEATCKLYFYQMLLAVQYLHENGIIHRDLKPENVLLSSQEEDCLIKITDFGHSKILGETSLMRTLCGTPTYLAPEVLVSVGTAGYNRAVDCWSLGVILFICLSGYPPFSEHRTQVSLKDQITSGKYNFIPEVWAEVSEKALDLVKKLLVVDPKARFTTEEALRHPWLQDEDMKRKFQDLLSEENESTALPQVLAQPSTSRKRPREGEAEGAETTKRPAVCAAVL

[3] = biological target: PKA
[4] = biological target: purified CHK2 kinase (UniProt O96017 1-543)
Chain of purified CHK2 kinase (O96017 whole entry): as the sequence (O96017 whole entry, the tested form may be a part) above

Row | Binder | Kinase inhibition analysis of peptides (phosphorylation of serine 216 on GST-Cdc25C 167-267, enzyme linked immune assay) [1] | Kinase inhibition analysis of peptides (phosphorylation of serine 216 on GST-Cdc25C 167-267, enzyme linked immune assay) [2] | IC50 in µM, kinase inhibition analysis (PepTag Non-Radioactive Protein Kinase Assay) [3] [µM] | IC50 in µM, kinase inhibition analysis (PepTag Non-Radioactive Protein Kinase Assay) [4] [µM]
1 | [dBpa][dD][dS][dW][dS][dPhe(F5)][dCha][dR][dR][dR][dQ][dR][dR] (also: cyclised or stapled (no detail)) [CBP505] | 63.4 | > 100 | – | –
2 | [dY][dY][dS]G[dS][dR][dPhe(F5)][dCha][dR][dR][dR][dQ][dR][dR][dK][dK][dR]G[dY] [CBP450] | – | – | > 400 | 10
3 | [dBpa][dS][dW][dS][dPhe(F5)][dCha][dR][dR][dR][dQ][dR][dR] [CBP501] | 7.9 | 18.6 | – | –
4 | YGRKKRRQRRRXFXYY ((l-Tyr)(l-Gly)(l-Arg)(l-Lys)(l-Lys)(l-Arg)(l-Arg)(l-Gln)(l-Arg)(l-Arg)(l-Arg)(l-Cha)(l-Phe-2,3,4,5,6-F)(l-aminoundecanoic acid)(l-Tyr)(l-Tyr): position 12 cyclohexyl-alanine; position 13 pentafluoro-phenylalanine; position 14 aminoundecanoic acid) [CBP440] | – | – | 180 | 8
5 | [dBpa][dS][dW][dS][dPhe(4-NO2)][dCha][dR][dR][dR][dQ][dR][dR] (also: cyclised or stapled (no detail)) [CBP603] | 15.5 | 18.1 | – | –
6 | [dY][dBpa][dS][dW][dS][dPhe(F5)][dCha][dR][dR][dR][dQ][dR][dR] [CBP500] | 5.6 | 8 | – | –
